Experimental data published in PMC7429481, “Signalling, trafficking and glucoregulatory properties of glucagon‐like peptide‐1 receptor agonists exendin‐4 and lixisenatide” (British Journal of Pharmacology, 2020).

Target: human SNAP‐GLP‐1 receptor (HEK293‐SNAP‐GLP‐1 receptor cells) (human) (UniProt P43220)
Test: FRET or BRET

Sequence of human SNAP‐GLP‐1 receptor (HEK293‐SNAP‐GLP‐1 receptor cells) (human) (P43220 24-463): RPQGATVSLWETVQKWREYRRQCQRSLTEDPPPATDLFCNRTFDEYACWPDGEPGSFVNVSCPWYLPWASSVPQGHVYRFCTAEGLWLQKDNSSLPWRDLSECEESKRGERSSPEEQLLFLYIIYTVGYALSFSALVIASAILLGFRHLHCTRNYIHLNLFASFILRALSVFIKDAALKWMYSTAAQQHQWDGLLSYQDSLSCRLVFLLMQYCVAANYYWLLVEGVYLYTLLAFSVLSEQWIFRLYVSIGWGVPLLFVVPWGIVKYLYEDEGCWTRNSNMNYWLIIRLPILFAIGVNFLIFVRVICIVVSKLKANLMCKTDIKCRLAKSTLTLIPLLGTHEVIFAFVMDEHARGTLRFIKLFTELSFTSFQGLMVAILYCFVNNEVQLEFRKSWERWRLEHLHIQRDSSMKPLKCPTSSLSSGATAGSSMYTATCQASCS

## exendin‐4 (from UniProt P26349 48-87) (peptide)
  log KD: -9.2

## lixisenatide (peptide)
  log KD: -9
